Laboratory results published in IntAct's records for PubMed 21880730.

B1: Nectin-3 (Mus musculus), Q9JLB9 (parent)
chain: MARTPGPAPLCPGGGKAQLSSAFPPAAGLLLPAPTPPPLLLLLIPLLLFSRLCGALAGSIIVEPHVTAVWGKNVSLKCLIEVNETITQISWEKIHGKSTQTVAVHHPQYGFSVQGDYQGRVLFKNYSLNDATITLHNIGFSDSGKYICKAVTFPLGNAQSSTTVTVLVEPTVSLIKGPDSLIDGGNETVAAVCVAATGKPVAQIDWEGDLGEMESSTTSFPNETATIVSQYKLFPTRFARGRRITCVVKHPALEKDIRYSFILDIQYAPEVSVTGYDGNWFVGRKGVNLKCNADANPPPFKSVWSRLDGQWPDGLLASDNTLHFVHPLTVNYSGVYVCKVSNSLGQRSDQKVIYISDPPTTTTLQPTVQWHSSPADVQDIATEHKKLPFPLSTLATLKDDTIGTIIASVVGGALFLVLVSILAGVFCYRRRRTFRGDYFAKNYIPPSDMQKESQIDVLHQDELDSYPDSVKKENKNPVNNLIRKDYLEEPEKTQWNNVENLTRFERPMDYYEDLKMGMKFVSDERYNESEDGLVSHVDGSVISRREWYV

Variants of: B1
Settings: with afad_rat Afdn

Variant | effect of a mutation on the interaction
MARTPGPAPLCPGGGKAQLSSAFPPAAGLLLPAPTPPPLLLLLIPLLLFSRLCGALAGSIIVEPHVTAVWGKNVSLKCLIEVNETITQISWEKIHGKSTQTVAVHHPQYGFSVQGDYQGRVLFKNYSLNDATITLHNIGFSDSGKYICKAVTLPLGNAQSSTTVTVLVEPTVSLIKGPDSLIDGGNETVAAVCVAATGKPVAQIDWEGDLGEMESSTTSFPNETATIVSQYKLFPTRFARGRRITCVVKHPALEKDIRYSFILDIQYAPEVSVTGYDGNWFVGRKGVNLKCNADANPPPFKSVWSRLDGQWPDGLLASDNTLHFVHPLTVNYSGVYVCKVSNSLGQRSDQKVIYISDPPTTTTLQPTVQWHSSPADVQDIATEHKKLPFPLSTLATLKDDTIGTIIASVVGGALFLVLVSILAGVFCYRRRRTFRGDYFAKNYIPPSDMQKESQIDVLHQDELDSYPDSVKKENKNPVNNLIRKDYLEEPEKTQWNNVENLTRFERPMDYYEDLKMGMKFVSDERYNESEDGLVSHVDGSVISRREWYV [F153L] | decreasing interaction
